Assay results reported in US20250376500A1.

Molecular target: IGF-1 receptor (IGF1R) on DU145 cells and on immortalized human meibomian gland epithelial cells (human) (UniProt P08069)
Assay: cell-based or functional assay

Chain of IGF-1 receptor (IGF1R) on DU145 cells and on immortalized human meibomian gland epithelial cells (human) (P08069 31-1367): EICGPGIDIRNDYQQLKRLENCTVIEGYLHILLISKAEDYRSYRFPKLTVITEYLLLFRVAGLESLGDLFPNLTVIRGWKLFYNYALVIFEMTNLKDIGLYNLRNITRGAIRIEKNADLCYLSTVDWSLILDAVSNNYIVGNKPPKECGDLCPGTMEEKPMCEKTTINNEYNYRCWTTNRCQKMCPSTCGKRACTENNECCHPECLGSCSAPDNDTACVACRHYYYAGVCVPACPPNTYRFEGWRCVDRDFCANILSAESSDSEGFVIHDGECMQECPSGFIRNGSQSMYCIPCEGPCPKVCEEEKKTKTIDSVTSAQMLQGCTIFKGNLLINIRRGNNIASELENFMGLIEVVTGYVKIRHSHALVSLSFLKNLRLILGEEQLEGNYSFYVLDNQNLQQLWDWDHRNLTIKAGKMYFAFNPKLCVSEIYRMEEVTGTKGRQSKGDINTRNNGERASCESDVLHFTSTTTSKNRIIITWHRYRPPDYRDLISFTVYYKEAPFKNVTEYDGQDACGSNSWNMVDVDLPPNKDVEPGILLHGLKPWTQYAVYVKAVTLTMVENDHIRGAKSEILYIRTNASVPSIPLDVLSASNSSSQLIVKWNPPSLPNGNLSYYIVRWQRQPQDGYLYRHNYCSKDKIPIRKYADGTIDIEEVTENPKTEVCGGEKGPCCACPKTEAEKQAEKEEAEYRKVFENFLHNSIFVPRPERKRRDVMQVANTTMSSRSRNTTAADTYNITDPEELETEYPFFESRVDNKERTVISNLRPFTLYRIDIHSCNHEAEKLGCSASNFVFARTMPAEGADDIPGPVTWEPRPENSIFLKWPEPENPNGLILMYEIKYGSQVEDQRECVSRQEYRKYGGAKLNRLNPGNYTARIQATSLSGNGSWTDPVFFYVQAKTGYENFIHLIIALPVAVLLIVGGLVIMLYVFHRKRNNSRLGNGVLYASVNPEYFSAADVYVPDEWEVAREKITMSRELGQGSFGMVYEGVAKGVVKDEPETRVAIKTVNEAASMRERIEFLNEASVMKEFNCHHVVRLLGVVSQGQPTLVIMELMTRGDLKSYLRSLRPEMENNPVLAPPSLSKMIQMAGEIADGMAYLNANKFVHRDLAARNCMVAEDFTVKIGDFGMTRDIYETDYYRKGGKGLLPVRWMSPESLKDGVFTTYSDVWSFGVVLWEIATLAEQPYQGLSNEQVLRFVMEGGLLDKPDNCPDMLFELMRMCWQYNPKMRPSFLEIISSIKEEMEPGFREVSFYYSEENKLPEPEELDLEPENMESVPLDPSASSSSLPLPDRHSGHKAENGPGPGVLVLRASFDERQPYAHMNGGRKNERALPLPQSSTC

IGF-1 Des1-3 (SEQ ID NO: 8) (ligand) showed an EC50 of AKT S473 phosphorylation in DU145 cells of 2.3 nM.
“IGF-1 E3R (SEQ ID NO: 4) (from UniProt P05019 49-118) (ligand)” showed an EC50 of AKT S473 phosphorylation in DU145 cells of 4.5 nM.
“IGF-1 Ea (SEQ ID NO: 7) (from UniProt P17647 26-130) (ligand)” showed an EC50 of AKT S473 phosphorylation in DU145 cells of 8.7 nM.
